Laboratory results as given in patent US20240368285A1 (HEFEI TG IMMUNOPHARMA, published 2024).

Assays:
[1] = biological target: T1, MICB005α3-Fc; test: ELISA on coated MICB*005 α3-Fc (1 µg/ml), HRP anti-human Fab secondary, OD450
T1 construct: also called MICB*005-Fc; domain α3 of MICB-005 Fc fusion protein
Method: (§1) After the antibodies were added, signal intensity was used for judging the binding characteristics of the antibodies and MICA and MICB.
(§2) The fusion proteins (produced in the Applicant's laboratory; an amino acid sequence of MICA002α3-Fc is as set forth in SEQ ID NO: 22; an amino acid sequence of MICA005α3-Fc is as set forth in SEQ ID NO: 24; an amino acid sequence of MICA008α3-Fc is as set forth in SEQ ID NO: 25; an amino acid sequence of MICA004α3-Fc is as set forth in SEQ ID NO: 23; an amino acid sequence of MICB001α3-Fc is as set forth in SEQ ID NO: 26; and an amino acid sequence of MICB005α3-Fc is as set forth in SEQ ID NO: 27) were diluted to a concentration of 1 μg/ml with PBS and then added into a 96-well plate in a volume of 100 μl/well. The plate was placed at 4° C. overnight. The PBS in the 96-well plate was removed by sucking. After the plate was washed with PBST (that is, PBS having a pH value of 7.2 included 0.1 volume % of Tween 20) for 6 times, PBS containing 10% of BSA was added in a volume of 200 μl/well. The plate was incubated at 37° C. for 2 hours for blocking. The blocking solution was removed. […]

[2] = biological target: T2, MICA on human tumor cells (A-375, A549, HCT-15, MDA-MB-231) (human, UniProt Q29983 24-383); test: flow cytometry on HCT-15 cells, Alexa-647 goat anti-human secondary, % binding ratio
T2 construct: whole, on cells
T2 sequence (looked up): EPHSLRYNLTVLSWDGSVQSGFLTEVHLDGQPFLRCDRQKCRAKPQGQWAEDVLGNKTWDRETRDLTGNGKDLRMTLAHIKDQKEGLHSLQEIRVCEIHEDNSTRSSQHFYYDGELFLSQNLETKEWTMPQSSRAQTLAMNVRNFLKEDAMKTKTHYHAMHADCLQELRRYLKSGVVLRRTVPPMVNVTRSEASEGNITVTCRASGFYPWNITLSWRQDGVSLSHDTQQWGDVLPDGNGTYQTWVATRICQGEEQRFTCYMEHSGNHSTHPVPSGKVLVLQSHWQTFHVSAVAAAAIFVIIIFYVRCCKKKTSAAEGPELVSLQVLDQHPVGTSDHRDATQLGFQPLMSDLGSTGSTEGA
Method: (§3) (2) Tumor cells were diluted to a density of 2×10⁶/mL with PBS and added into a 1.5 ml EP tube in a volume of 100 l/tube. 10 l/tube of goat serum was added into the EP tube; and blocking was conducted at 4° C. for 30 min. […] The tube was incubated at 4° C. for 30 min. 1 mL of PBS was added into the EP tube, and centrifugation was conducted 4° C. at a rate of 3,500 rpm for 5 min. The supernatant was removed. Then, the EP tube was washed once with the PBS, and the supernatant was removed after centrifugation. The cells were resuspended with PBS in a volume of 100 l/tube. An Alexa-647 labeled goat anti-human secondary antibody (purchased from Jackson lab) was added into the tube in a volume of 1 l/tube, and the tube was incubated in the dark at 4° C. for 30 min. The tube was washed twice with PBS, and the supernatant was removed after centrifugation. The cells were resuspended with the PBS in a volume of 200 l/tube, and detection was conducted by a flow cytometer. The results are as shown in FIG. 17A and FIG. 17B, FIG. 18A and FIG. 18B, FIG. 19A and FIG. 19B, and FIG. 20A and FIG. 20B.

[3] = biological target: T3, MICA008α3-Fc (human); test: ELISA on coated MICA*008 α3-Fc (1 µg/ml), HRP anti-human Fab secondary, OD450
T3 construct: also called MICA*008-Fc; domain α3 of MICA-008 Fc fusion protein
Method: as §1, §2

[4] = biological target: T4, MICA protein (SPR analyte) (human, UniProt Q29983 24-308, limits assumed); test: SPR, Biacore 8K
T4 construct: also called major histocompatibility complex class I chain related polypeptide A
T4 sequence: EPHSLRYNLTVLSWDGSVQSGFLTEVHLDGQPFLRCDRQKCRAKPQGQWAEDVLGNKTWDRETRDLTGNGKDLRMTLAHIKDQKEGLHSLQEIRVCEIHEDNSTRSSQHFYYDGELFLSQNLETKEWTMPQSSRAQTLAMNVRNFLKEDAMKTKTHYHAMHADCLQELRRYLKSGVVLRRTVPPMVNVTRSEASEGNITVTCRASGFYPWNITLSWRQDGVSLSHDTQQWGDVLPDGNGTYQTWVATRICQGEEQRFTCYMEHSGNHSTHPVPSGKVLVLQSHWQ
Method: In a Biacore 8K (Cytiva) system, the antibody was diluted to a concentration of 10 µg/mL with running buffer (HBS-EP), and the antibody was conjugated onto a protein A (Cytiva, 29127556) chip at a flow rate of […].
Kinetic and affinity data of binding of the maternal antibody h5A1 and the affinity maturation antibody h5A1002 and MICA were detected.

[5] = biological target: T2, MICA on human tumor cells (A-375, A549, …); test: flow cytometry on A-375 cells, Alexa-647 goat anti-human secondary, % binding ratio
Method: as §3

T3 sequence (chain, as listed by the source limits assumed): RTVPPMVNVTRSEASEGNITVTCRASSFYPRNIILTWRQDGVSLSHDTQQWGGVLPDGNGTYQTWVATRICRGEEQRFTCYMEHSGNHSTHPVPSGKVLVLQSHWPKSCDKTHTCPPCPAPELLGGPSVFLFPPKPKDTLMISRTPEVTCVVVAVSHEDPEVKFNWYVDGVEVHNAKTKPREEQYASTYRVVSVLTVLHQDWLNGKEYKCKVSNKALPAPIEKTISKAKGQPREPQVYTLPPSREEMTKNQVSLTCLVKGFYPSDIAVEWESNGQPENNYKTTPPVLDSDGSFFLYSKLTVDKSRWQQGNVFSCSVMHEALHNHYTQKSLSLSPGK
T1 sequence (chain, as listed by the source limits assumed): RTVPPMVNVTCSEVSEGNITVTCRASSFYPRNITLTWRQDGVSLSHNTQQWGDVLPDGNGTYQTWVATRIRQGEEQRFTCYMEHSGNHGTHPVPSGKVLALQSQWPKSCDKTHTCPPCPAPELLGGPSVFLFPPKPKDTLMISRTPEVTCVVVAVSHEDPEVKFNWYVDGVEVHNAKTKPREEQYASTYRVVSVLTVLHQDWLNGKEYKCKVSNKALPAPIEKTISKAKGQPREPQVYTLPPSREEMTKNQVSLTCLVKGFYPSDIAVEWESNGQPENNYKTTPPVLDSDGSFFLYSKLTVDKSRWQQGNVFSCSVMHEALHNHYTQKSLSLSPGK

- EC50 (read off the curve) [1]: ~0.05 µg/mL
- EC50 (read off the curve) [2]: ~0.1 µg/mL
- EC50 (read off the curve) [3]: ~0.08 µg/mL
- fold increase of affinity against maternal antibody h5A1 [4]: ~39 times
- EC50 (read off the curve) [5]: ~0.3 µg/mL
B1: affinity maturation antibody h5A1002 (antibody, V domains shown)
VH: QVQLQESGPGLVKPSETLSLTCTVSGFSLTTYGGHWIRQPPGKGLEWIGMIWTDGWTDYNAAFISRVTISVDTSKNQFSLKLSSVTAADTAVYYCARKGHGYYYAMDYWGQGTLVTVSS
VL: EIVLTQSPGTLSLSPGERATLSCTASSSVSSSYLHWYQQKPGQAPRLLIYSTSNLISGIPDRFSGSGSGTDFTLTISRLEPEDFAVYYCHQYHRSPFTFGQGTKLEIKR
notes: Human IgG1, kappa; also called h5A1002-hIgG1
